# Assay results published in patent US20060252677A1.
# Target: NMDA receptor (NMDA receptor/2B subunit and NMDA receptor I) expressed in Xenopus oocytes (human) (UniProt Q13224)
# Test: cell-based or functional assay
# Chain of Protein-X (novel PSD) expressed from injected RNA in Xenopus oocytes (Q5T2T1 whole entry K322R): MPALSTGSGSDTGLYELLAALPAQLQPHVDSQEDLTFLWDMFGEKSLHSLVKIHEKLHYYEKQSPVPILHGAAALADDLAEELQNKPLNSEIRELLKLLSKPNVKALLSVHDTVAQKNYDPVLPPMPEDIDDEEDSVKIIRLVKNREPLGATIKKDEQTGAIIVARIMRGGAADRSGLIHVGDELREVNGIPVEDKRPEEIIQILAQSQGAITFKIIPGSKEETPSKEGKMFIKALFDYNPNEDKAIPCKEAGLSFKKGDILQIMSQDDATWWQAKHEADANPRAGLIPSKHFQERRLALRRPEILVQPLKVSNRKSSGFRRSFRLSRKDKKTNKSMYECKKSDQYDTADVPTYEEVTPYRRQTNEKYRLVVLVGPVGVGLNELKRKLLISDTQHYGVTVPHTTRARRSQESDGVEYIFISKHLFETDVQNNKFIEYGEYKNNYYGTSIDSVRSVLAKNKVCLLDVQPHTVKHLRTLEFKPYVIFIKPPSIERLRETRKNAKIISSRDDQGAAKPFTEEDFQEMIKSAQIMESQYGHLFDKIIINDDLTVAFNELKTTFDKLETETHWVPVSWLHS
substance,measurement,value
Protein-X (novel PSD) expressed from injected RNA in Xenopus oocytes (from UniProt Q5T2T1 1-576),"Current variation (µA), Average",0.55 µA
same,"Current variation (µA), Standard deviation",0.15 µA
same,"Current variation (µA), oocyte #1, 1000 µM Glu + 10 µM Gly",0.6 µA
same,"Current variation (µA), oocyte #2, 1000 µM Glu + 10 µM Gly",0.81 µA
same,"Current variation (µA), oocyte #3, 1000 µM Glu + 10 µM Gly",0.38 µA
same,"Current variation (µA), oocyte #4, 1000 µM Glu + 10 µM Gly",0.57 µA
same,"Current variation (µA), oocyte #5, 1000 µM Glu + 10 µM Gly",0.41 µA
same,"Current variation (µA), oocyte #6, 1000 µM Glu + 10 µM Gly",0.54 µA
same,"current response to the ligand stimulation, against oocytes expressing PSD-95 with the NMDA receptor",1.5 times
